From IntAct's records for PubMed 24229708

B1: Runt-related transcription factor 3 (Homo sapiens), Q13761 (parent)
chain: MRIPVDPSTSRRFTPPSPAFPCGGGGGKMGENSGALSAQAAVGPGGRARPEVRSMVDVLADHAGELVRTDSPNFLCSVLPSHWRCNKTLPVAFKVVALGDVPDGTVVTVMAGNDENYSAELRNASAVMKNQVARFNDLRFVGRSGRGKSFTLTITVFTNPTQVATYHRAIKVTVDGPREPRRHRQKLEDQTKPFPDRFGDLERLRMRVTPSTPSPRGSLSTTSHFSSQPQTPIQGTSELNPFSDPRQFDRSFPTLPTLTESRFPDPRMHYPGAMSAAFPYSATPSGTSISSLSVAGMPATSRFHHTYLPPPYPGAPQNQSGPFQANPSPYHLYYGTSSGSYQFSMVAGSSSGGDRSPTRMLASCTSSAASVAAGNLMNPSLGGQSDGVEADGSHSNSPTALSTPGRMDEAVWRPY

Variants of: B1
Details: with brd2_human BRD2, P25440

Variant | effect of a mutation on the interaction
K94R;K171R | disrupting interaction
K94R | disrupting interaction
K171R | decreasing interaction
K87R;K94R;K129R;K148R;K171R;K186R | disrupting interaction
